# Experimental data taken from the supplement of paper PMC11811203.
# B1: THAP1; numbered along this chain (parent)
# chain: MVQSCSAYGCKNRYDKDKPVSFHKFPLTRPSLCKEWEAAVRRKNFKPTKYSSICSEHFTPDCFKRECNNKLLKENAVPTIFLCTEPHDKKEDLLEPQEQLPPPPLPPPVSQVDAAIGLLMPPLQTPVNLSVFCDHNYTVEDTMHQRKRIHQLEQQVEKLRKKLKTAQQRCRRQERQLEKLKEVVHFQKEKDDVSERGYVILPNDYFEIVEVPA
# Variants of: B1
# Experiment: THAP1 transcriptional activity (GFP+/GFP- enrichment relative to wild-type constructs) (ratio to WT); higher = more THAP1 activity (PSMB5 reporter activation)
# Details: with PSMB5 promoter-GFP reporter
# Procedure, shortened: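 A site-saturation library of human THAP1 (residues 2–213, each changed to all 20 amino acids) was transduced by lentivirus at MOI ~0.3, in duplicate, into THAP1-knockout HEK-293T cells carrying mClover3 knocked in at endogenous PSMB5. After five days, BFP+ cells were sorted into GFP-dim and GFP-bright bins, and variants were counted by Illumina sequencing of genomic DNA amplicons. Activity is the replicate-mean bright/dim read fold change divided by the mean of wild-type synonymous constructs.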
row,Variant,THAP1 transcriptional activity
1,MVQSCSAYGCKNRYDKDKPVSFHKFPLTRPSLCKEWEAAVRRKNFKPTKYSSICSEHFTPDCFKRECNNKLLKENAVPTIFLCTEPHDRKEDLLEPQEQLPPPPLPPPVSQVDAAIGLLMPPLQTPVNLSVFCDHNYTVEDTMHQRKRIHQLEQQVEKLRKKLKTAQQRCRRQERQLEKLKEVVHFQKEKDDVSERGYVILPNDYFEIVEVPA [K89R],0.657
2,MVQSCSAYGCKNRYDKDKPVSFHKFPLTRPSLCKEWEAAVRRKNFKPTKYSSICSEHFTPDCFKRECNNKLLKENAVPTIFLCTEPHDWKEDLLEPQEQLPPPPLPPPVSQVDAAIGLLMPPLQTPVNLSVFCDHNYTVEDTMHQRKRIHQLEQQVEKLRKKLKTAQQRCRRQERQLEKLKEVVHFQKEKDDVSERGYVILPNDYFEIVEVPA [K89W],0.592
3,MVQSCSAYGCKNRYDKDKPVSFHKFPLTRPSLCKEWEAAVRRKNFKPTKYSSICSEHFTPDCFKRECNNKLLKENAVPTIFLCTEPHDPKEDLLEPQEQLPPPPLPPPVSQVDAAIGLLMPPLQTPVNLSVFCDHNYTVEDTMHQRKRIHQLEQQVEKLRKKLKTAQQRCRRQERQLEKLKEVVHFQKEKDDVSERGYVILPNDYFEIVEVPA [K89P],0.989
4,MVQSCSAYGCKNRYDKDKPVSFHKFPLTRPSLCKEWEAAVRRKNFKPTKYSSICSEHFTPDCFKRECNNKLLKENAVPTIFLCTEPHDLKEDLLEPQEQLPPPPLPPPVSQVDAAIGLLMPPLQTPVNLSVFCDHNYTVEDTMHQRKRIHQLEQQVEKLRKKLKTAQQRCRRQERQLEKLKEVVHFQKEKDDVSERGYVILPNDYFEIVEVPA [K89L],1.64
5,MVQSCSAYGCKNRYDKDKPVSFHKFPLTRPSLCKEWEAAVRRKNFKPTKYSSICSEHFTPDCFKRECNNKLLKENAVPTIFLCTEPHDNKEDLLEPQEQLPPPPLPPPVSQVDAAIGLLMPPLQTPVNLSVFCDHNYTVEDTMHQRKRIHQLEQQVEKLRKKLKTAQQRCRRQERQLEKLKEVVHFQKEKDDVSERGYVILPNDYFEIVEVPA [K89N],1.86
6,MVQSCSAYGCKNRYDKDKPVSFHKFPLTRPSLCKEWEAAVRRKNFKPTKYSSICSEHFTPDCFKRECNNKLLKENAVPTIFLCTEPHDTKEDLLEPQEQLPPPPLPPPVSQVDAAIGLLMPPLQTPVNLSVFCDHNYTVEDTMHQRKRIHQLEQQVEKLRKKLKTAQQRCRRQERQLEKLKEVVHFQKEKDDVSERGYVILPNDYFEIVEVPA [K89T],1.3
7,MVQSCSAYGCKNRYDKDKPVSFHKFPLTRPSLCKEWEAAVRRKNFKPTKYSSICSEHFTPDCFKRECNNKLLKENAVPTIFLCTEPHDQKEDLLEPQEQLPPPPLPPPVSQVDAAIGLLMPPLQTPVNLSVFCDHNYTVEDTMHQRKRIHQLEQQVEKLRKKLKTAQQRCRRQERQLEKLKEVVHFQKEKDDVSERGYVILPNDYFEIVEVPA [K89Q],1.32
8,MVQSCSAYGCKNRYDKDKPVSFHKFPLTRPSLCKEWEAAVRRKNFKPTKYSSICSEHFTPDCFKRECNNKLLKENAVPTIFLCTEPHDVKEDLLEPQEQLPPPPLPPPVSQVDAAIGLLMPPLQTPVNLSVFCDHNYTVEDTMHQRKRIHQLEQQVEKLRKKLKTAQQRCRRQERQLEKLKEVVHFQKEKDDVSERGYVILPNDYFEIVEVPA [K89V],1.41
9,MVQSCSAYGCKNRYDKDKPVSFHKFPLTRPSLCKEWEAAVRRKNFKPTKYSSICSEHFTPDCFKRECNNKLLKENAVPTIFLCTEPHDSKEDLLEPQEQLPPPPLPPPVSQVDAAIGLLMPPLQTPVNLSVFCDHNYTVEDTMHQRKRIHQLEQQVEKLRKKLKTAQQRCRRQERQLEKLKEVVHFQKEKDDVSERGYVILPNDYFEIVEVPA [K89S],2.9
10,MVQSCSAYGCKNRYDKDKPVSFHKFPLTRPSLCKEWEAAVRRKNFKPTKYSSICSEHFTPDCFKRECNNKLLKENAVPTIFLCTEPHDMKEDLLEPQEQLPPPPLPPPVSQVDAAIGLLMPPLQTPVNLSVFCDHNYTVEDTMHQRKRIHQLEQQVEKLRKKLKTAQQRCRRQERQLEKLKEVVHFQKEKDDVSERGYVILPNDYFEIVEVPA [K89M],0.476
11,MVQSCSAYGCKNRYDKDKPVSFHKFPLTRPSLCKEWEAAVRRKNFKPTKYSSICSEHFTPDCFKRECNNKLLKENAVPTIFLCTEPHDGKEDLLEPQEQLPPPPLPPPVSQVDAAIGLLMPPLQTPVNLSVFCDHNYTVEDTMHQRKRIHQLEQQVEKLRKKLKTAQQRCRRQERQLEKLKEVVHFQKEKDDVSERGYVILPNDYFEIVEVPA [K89G],1.41
12,MVQSCSAYGCKNRYDKDKPVSFHKFPLTRPSLCKEWEAAVRRKNFKPTKYSSICSEHFTPDCFKRECNNKLLKENAVPTIFLCTEPHDFKEDLLEPQEQLPPPPLPPPVSQVDAAIGLLMPPLQTPVNLSVFCDHNYTVEDTMHQRKRIHQLEQQVEKLRKKLKTAQQRCRRQERQLEKLKEVVHFQKEKDDVSERGYVILPNDYFEIVEVPA [K89F],1.17
13,MVQSCSAYGCKNRYDKDKPVSFHKFPLTRPSLCKEWEAAVRRKNFKPTKYSSICSEHFTPDCFKRECNNKLLKENAVPTIFLCTEPHDHKEDLLEPQEQLPPPPLPPPVSQVDAAIGLLMPPLQTPVNLSVFCDHNYTVEDTMHQRKRIHQLEQQVEKLRKKLKTAQQRCRRQERQLEKLKEVVHFQKEKDDVSERGYVILPNDYFEIVEVPA [K89H],1.44
14,MVQSCSAYGCKNRYDKDKPVSFHKFPLTRPSLCKEWEAAVRRKNFKPTKYSSICSEHFTPDCFKRECNNKLLKENAVPTIFLCTEPHDIKEDLLEPQEQLPPPPLPPPVSQVDAAIGLLMPPLQTPVNLSVFCDHNYTVEDTMHQRKRIHQLEQQVEKLRKKLKTAQQRCRRQERQLEKLKEVVHFQKEKDDVSERGYVILPNDYFEIVEVPA [K89I],1.1
15,MVQSCSAYGCKNRYDKDKPVSFHKFPLTRPSLCKEWEAAVRRKNFKPTKYSSICSEHFTPDCFKRECNNKLLKENAVPTIFLCTEPHDKPEDLLEPQEQLPPPPLPPPVSQVDAAIGLLMPPLQTPVNLSVFCDHNYTVEDTMHQRKRIHQLEQQVEKLRKKLKTAQQRCRRQERQLEKLKEVVHFQKEKDDVSERGYVILPNDYFEIVEVPA [K90P],1.06
16,MVQSCSAYGCKNRYDKDKPVSFHKFPLTRPSLCKEWEAAVRRKNFKPTKYSSICSEHFTPDCFKRECNNKLLKENAVPTIFLCTEPHDKFEDLLEPQEQLPPPPLPPPVSQVDAAIGLLMPPLQTPVNLSVFCDHNYTVEDTMHQRKRIHQLEQQVEKLRKKLKTAQQRCRRQERQLEKLKEVVHFQKEKDDVSERGYVILPNDYFEIVEVPA [K90F],0.963
17,MVQSCSAYGCKNRYDKDKPVSFHKFPLTRPSLCKEWEAAVRRKNFKPTKYSSICSEHFTPDCFKRECNNKLLKENAVPTIFLCTEPHDKREDLLEPQEQLPPPPLPPPVSQVDAAIGLLMPPLQTPVNLSVFCDHNYTVEDTMHQRKRIHQLEQQVEKLRKKLKTAQQRCRRQERQLEKLKEVVHFQKEKDDVSERGYVILPNDYFEIVEVPA [K90R],0.598
18,MVQSCSAYGCKNRYDKDKPVSFHKFPLTRPSLCKEWEAAVRRKNFKPTKYSSICSEHFTPDCFKRECNNKLLKENAVPTIFLCTEPHDKCEDLLEPQEQLPPPPLPPPVSQVDAAIGLLMPPLQTPVNLSVFCDHNYTVEDTMHQRKRIHQLEQQVEKLRKKLKTAQQRCRRQERQLEKLKEVVHFQKEKDDVSERGYVILPNDYFEIVEVPA [K90C],1.03
19,MVQSCSAYGCKNRYDKDKPVSFHKFPLTRPSLCKEWEAAVRRKNFKPTKYSSICSEHFTPDCFKRECNNKLLKENAVPTIFLCTEPHDKGEDLLEPQEQLPPPPLPPPVSQVDAAIGLLMPPLQTPVNLSVFCDHNYTVEDTMHQRKRIHQLEQQVEKLRKKLKTAQQRCRRQERQLEKLKEVVHFQKEKDDVSERGYVILPNDYFEIVEVPA [K90G],1.6
20,MVQSCSAYGCKNRYDKDKPVSFHKFPLTRPSLCKEWEAAVRRKNFKPTKYSSICSEHFTPDCFKRECNNKLLKENAVPTIFLCTEPHDKLEDLLEPQEQLPPPPLPPPVSQVDAAIGLLMPPLQTPVNLSVFCDHNYTVEDTMHQRKRIHQLEQQVEKLRKKLKTAQQRCRRQERQLEKLKEVVHFQKEKDDVSERGYVILPNDYFEIVEVPA [K90L],0.82
21,MVQSCSAYGCKNRYDKDKPVSFHKFPLTRPSLCKEWEAAVRRKNFKPTKYSSICSEHFTPDCFKRECNNKLLKENAVPTIFLCTEPHDKHEDLLEPQEQLPPPPLPPPVSQVDAAIGLLMPPLQTPVNLSVFCDHNYTVEDTMHQRKRIHQLEQQVEKLRKKLKTAQQRCRRQERQLEKLKEVVHFQKEKDDVSERGYVILPNDYFEIVEVPA [K90H],0.995
22,MVQSCSAYGCKNRYDKDKPVSFHKFPLTRPSLCKEWEAAVRRKNFKPTKYSSICSEHFTPDCFKRECNNKLLKENAVPTIFLCTEPHDKAEDLLEPQEQLPPPPLPPPVSQVDAAIGLLMPPLQTPVNLSVFCDHNYTVEDTMHQRKRIHQLEQQVEKLRKKLKTAQQRCRRQERQLEKLKEVVHFQKEKDDVSERGYVILPNDYFEIVEVPA [K90A],1.95
23,MVQSCSAYGCKNRYDKDKPVSFHKFPLTRPSLCKEWEAAVRRKNFKPTKYSSICSEHFTPDCFKRECNNKLLKENAVPTIFLCTEPHDKMEDLLEPQEQLPPPPLPPPVSQVDAAIGLLMPPLQTPVNLSVFCDHNYTVEDTMHQRKRIHQLEQQVEKLRKKLKTAQQRCRRQERQLEKLKEVVHFQKEKDDVSERGYVILPNDYFEIVEVPA [K90M],1.03
24,MVQSCSAYGCKNRYDKDKPVSFHKFPLTRPSLCKEWEAAVRRKNFKPTKYSSICSEHFTPDCFKRECNNKLLKENAVPTIFLCTEPHDKQEDLLEPQEQLPPPPLPPPVSQVDAAIGLLMPPLQTPVNLSVFCDHNYTVEDTMHQRKRIHQLEQQVEKLRKKLKTAQQRCRRQERQLEKLKEVVHFQKEKDDVSERGYVILPNDYFEIVEVPA [K90Q],2.35
25,MVQSCSAYGCKNRYDKDKPVSFHKFPLTRPSLCKEWEAAVRRKNFKPTKYSSICSEHFTPDCFKRECNNKLLKENAVPTIFLCTEPHDKNEDLLEPQEQLPPPPLPPPVSQVDAAIGLLMPPLQTPVNLSVFCDHNYTVEDTMHQRKRIHQLEQQVEKLRKKLKTAQQRCRRQERQLEKLKEVVHFQKEKDDVSERGYVILPNDYFEIVEVPA [K90N],1.49
26,MVQSCSAYGCKNRYDKDKPVSFHKFPLTRPSLCKEWEAAVRRKNFKPTKYSSICSEHFTPDCFKRECNNKLLKENAVPTIFLCTEPHDKIEDLLEPQEQLPPPPLPPPVSQVDAAIGLLMPPLQTPVNLSVFCDHNYTVEDTMHQRKRIHQLEQQVEKLRKKLKTAQQRCRRQERQLEKLKEVVHFQKEKDDVSERGYVILPNDYFEIVEVPA [K90I],1.52
27,MVQSCSAYGCKNRYDKDKPVSFHKFPLTRPSLCKEWEAAVRRKNFKPTKYSSICSEHFTPDCFKRECNNKLLKENAVPTIFLCTEPHDKDEDLLEPQEQLPPPPLPPPVSQVDAAIGLLMPPLQTPVNLSVFCDHNYTVEDTMHQRKRIHQLEQQVEKLRKKLKTAQQRCRRQERQLEKLKEVVHFQKEKDDVSERGYVILPNDYFEIVEVPA [K90D],0.818
28,MVQSCSAYGCKNRYDKDKPVSFHKFPLTRPSLCKEWEAAVRRKNFKPTKYSSICSEHFTPDCFKRECNNKLLKENAVPTIFLCTEPHDKEEDLLEPQEQLPPPPLPPPVSQVDAAIGLLMPPLQTPVNLSVFCDHNYTVEDTMHQRKRIHQLEQQVEKLRKKLKTAQQRCRRQERQLEKLKEVVHFQKEKDDVSERGYVILPNDYFEIVEVPA [K90E],2.91
